Test system: Nc1ncnc2c1ncn2[C@@H]1O[C@H](COP(=O)(O)OP(=O)(O)OP(=O)(O)O)[C@@H](O)[C@H]1O
Assay: purified protein
[1] = saturating taxol-stabilized MTs, no ATPγS, pH 7.2, 2 mM MgCl2

Substance | Km [1] | kcat [1] | Km (pH 7.2)
WT dynein (GST-Dyn1_331kD) (Saccharomyces cerevisiae S288C) | 46 ± 5 µM | 17.0 ± 0.5 s⁻¹ | –
WT dynein (GST-Dyn1_331kD) (Saccharomyces cerevisiae S288C; K2424A) | – | – | 38 ± 3 µM

Reference: paper PMC4286497
